This note sets out measurements from patent publication US20260069728A1, “MULTI-TARGETING COMPOUND AND USE THEREOF” (Chengdu Shetai Medical Technology Co., Ltd., priority 2023, published 2026).

A short description of data set [1]: Stability of radioligands in PBS buffer (radio-HPLC). The format is physicochemical. How it is done:
The purpose of this experiment was to test the stability of the radioligands under buffer conditions simulating the physiological environment. This stability is a prerequisite for further animal experiments.
1. ^68Ga-SDYD01: ^68Ga-SDYD01 was added to PBS buffer (pH=7.4) and incubated at 37° C. The mixture samples were taken for radio-HPLC analysis after 0.5 hours, 1 hour, and 2 hours of incubation. The stability of ^68Ga-SDYD01 in PBS buffer: the radiochemical purities of ^68Ga-SDYD01 after incubation in PBS for 0.5 hours, 1 hour, and 2 hours were 98%, 97%, and 97%, respectively (FIG. 4).
2. ^177Lu-SDYD01: ^177Lu-SDYD01 was added to PBS buffer (pH=7.4) and incubated at 37° C. The mixture samples were taken for radio-HPLC analysis after 24 hours, 48 hours, and 120 hours of incubation. The stability of ^177Lu-SDYD01 in PBS buffer: the radiochemical purities of ^177Lu-SDYD01 after incubation in PBS for 24 hours, 48 hours, and 120 hours were 97%, 96%, and 94%, respectively (FIG. 5).
1. ^68Ga-SDYD02: ^68Ga-SDYD02 was added to PBS buffer (pH=7.4) and incubated at 37° C. The mixture samples were taken for radio-HPLC analysis after 0.5 hours, 1 hour, and 2 hours of incubation. The stability of ^68Ga-SDYD02 in PBS buffer: the radiochemical purities of ^68Ga-SDYD02 after incubation in PBS for 0.5 hours, 1 hour, and 2 hours were 96%, 95% and 93%, respectively (FIG. 10).
2. ^177Lu-SDYD02: ^177Lu-SDYD02 was added to PBS buffer (pH=7.4) and incubated at 37° C. The mixture samples were taken for radio-HPLC analysis after 24 hours, 48 hours, and 120 hours of incubation. The stability of ^177Lu-SDYD02 in PBS buffer: the radiochemical purities of ^177Lu-SDYD02 after incubation in PBS for 24 hours, 48 hours, and 120 hours were 95%, 91% and 87%, respectively (FIG. 11).
1. ^68Ga-SDYD05: ^68Ga-SDYD05 was added to PBS buffer (pH=7.4) and incubated at 37° C. The mixture samples were taken for radio-HPLC analysis after 0.5 hours, 1 hour, and 2 hours of incubation. The stability of ^68Ga-SDYD05 in PBS buffer: the radiochemical purities of ^68Ga-SDYD05 after incubation in PBS for 0.5 hours, 1 hour, and 2 hours were 98%, 96% and 95%, respectively (FIG. 16).
2. ^177Lu-SDYD05: ^177Lu-SDYD05 was added to PBS buffer (pH=7.4) and incubated at 37° C. The mixture samples were taken for radio-HPLC analysis after 24 hours, 48 hours, and 120 hours of incubation. The stability of ^177Lu-SDYD05 in PBS buffer: the radiochemical purities of ^177Lu-SDYD05 after incubation in PBS for 24 hours, 48 hours, and 120 hours were 97%, 96% and 96%, respectively (FIG. 17).
1. ^68Ga-SDYD06: ^68Ga-SDYD06 was added to PBS buffer (pH=7.4) and incubated at 37° C. The mixture samples were taken for radio-HPLC analysis after 0.5, 1, and 2 hours of incubation. The stability of ^68Ga-SDYD06 in PBS buffer: the radiochemical purities of ^68Ga-SDYD06 after incubation in PBS for 0.5 hours, 1 hour, and 2 hours were 96%, 94% and 93%, respectively (FIG. 22).
2. ^177Lu-SDYD06: ^177Lu-SDYD06 was added to PBS buffer (pH=7.4) and incubated at 37° C. The mixture samples were taken for radio-HPLC analysis after 24 hours, 48 hours, and 120 hours of incubation.
1. ^68Ga-SDYD03: ^68Ga-SDYD03 was added to PBS buffer (pH=7.4) and incubated at 37° C. The mixture samples were taken for radio-HPLC analysis after 0.5 hours, 1 hour, and 2 hours of incubation. The stability of ^68Ga-SDYD03 PBS in PBS buffer: the radiochemical purities of ^68Ga-SDYD03 after incubation in PBS for 0.5 hours, 1 hour, and 2 hours were 96%, 96% and 95%, respectively (FIG. 27).
2. ^177Lu-SDYD03: ^177Lu-SDYD03 was added to PBS buffer (pH=7.4) and incubated at 37° C. The mixture samples were taken for radio-HPLC analysis after 24 hours, 48 hours, and 120 hours of incubation. The stability of ^177Lu-SDYD03 in PBS buffer: the radiochemical purities of ^177Lu-SDYD03 after incubation in PBS for 24 hours, 48 hours, and 120 hours are 99%, 96% and 94%, respectively (FIG. 28). […]

Data set [2] concerns subcutaneous xenograft tumors (U87 MG cells). In words: Small animal PET imaging and biodistribution study. The note with it: mouse, in vivo. The format is in vivo, NSG mice. How it is done:
(§1) Eleven NSG mice bearing subcutaneous xenograft tumors (U87 MG cells), with tumor sizes approximately 150 mm^3, were used. The mice were intravenously injected via the tail vein with approximately 7.4 MBq of ^68Ga-labeled SDYD01, SDYD02, SDYD03. SDYD04, SDYD05, SDYD06, SDYD07, SDYD08 or SDYD07-1 compounds, or with ^[…]-labeled FAPI-04 or FAP2286 compounds as tracers. Micro PET/CT imaging was performed at 30 min, 60 min, and 120 min post-injection. Static images were acquired in 3D mode for 20 minutes. Reconstruction was performed using the OSEM3D/MAP method to obtain attenuation-corrected PET/CT fusion images.
(§2) NSG mice bearing subcutaneous xenograft tumors (U87 MG cells) were divided into 3 groups, with 11 mice in each group. They were intravenously injected via the tail vein with ^68Ga-labeled SDYD01, SDYD02, SDYD03. SDYD04, SDYD05, SDYD06. SDYD07, SDYD08, or SDYD07-1 compounds, or with ^68Ga-labeled FAPI-04 or FAP2286 compounds as tracers. Tumor-bearing mice injected with ^68Ga-labeled compounds SDYD01, SDYD02, SDYD03, SDYD04, SDYD05, SDYD06, FAPI-04, as well as 68Ga-labeled compounds FAPI-04 and FAP2286, were euthanized at 30 min. 60 min, and 120 min, respectively, for each group. Tumor-bearing mice injected with ^68Ga-labeled compounds SDYD07, SDYD08, and SDYD07-1 were euthanized at 30 min, 60 min, and 90 min, respectively, for each group. Blood, tumors, and other major organs and tissues were collected, weighed, and measured for radioactivity. After radioactive decay correction, the standardized uptake value (SUV) and percentage injected dose per gram of tissue (% ID/g) were calculated. In these figures, (a) represents the PET/CT imaging results, (b) represents the biodistribution results, and (c) represents the relative ratios of radioactive uptake in tumor versus normal tissues.

The nature of data set [3]: Small animal PET imaging and biodistribution study. The note with it: NSG, mouse, in vivo, iv, 7.4 MBq, total radioactivity, absolute uptake value in the tumor. Type of data set: in vivo, NSG mice. How it is done: as §1, §2

One may read the tissue uptake as the percentage of the injected dose found per gram of tissue. `N#C[C@@H]1CC(F)(F)CN1C(=O)CNC(=O)c1ccnc2ccc(OCCCN3CCN(C(=O)[C@H](CCCCNC(=O)CCN4C(=O)CC(SCC(=O)NCCOCCOCCOCCOCCC(=O)NCCCC[C@@H]5NC(=O)[C@@H](Cc6ccc(O)cc6)NC(=O)[C@H](CC(=O)O)NC(=O)CNC(=O)[C@H](CCCNC(=N)N)NC5=O)C4=O)NC(=O)CCC(C(=O)O)N4CCN(CC(=O)O)CCN(CC(=O)O)CCN(CC(=O)O)CC4)CC3)cc12` (single isomer, unassigned) [^68Ga-SDYD07, metal not drawn]: the “stability in PBS buffer (in words)” value in data set [1] is “quite stable in PBS buffer”. Further, in data set [2], the “radioactive uptake in non-target organs (in words)” value was “significantly reduced at 60 minutes”; the “radioactive uptake in the tumor sites (in words)” value is “significant radioactive uptake in the tumor sites”; the “target/non-target ratios (in words)” value is given as “significantly increased target/non-target ratios”; the “tumor uptake and tumor retention time, comparison (in words)” value was “higher tumor uptake and longer tumor retention time”. For the same compound, in data set [3], the tissue uptake at 0.5 h was at least 10 %ID/g, the tissue uptake at 1 h was at least 10 %ID/g and the tissue uptake at 2 h was around 10 %ID/g.

As for `CCCCCC(=O)N[C@@H]1CSCc2cc(CSCCNC(=O)[C@@H](CCCCNC(=O)CN3CCN(CC(=O)O)CCN(CC(=O)O)CCN(CC(=O)O)CC3)NC(=O)COCCOCCNC(=O)COCCOCCNC(=O)CCN3C(=O)CC(SCCNC(=O)CCC(=O)N[C@@H](CCCNC(=N)N)C(=O)N[C@@H](CCCNC(=N)N)C(=O)N[C@@H](Cc4ccc5ccccc5c4)C(=O)N[C@@H]4CSSC[C@@H](C(=O)N[C@@H](CCCNC(=N)N)C(N)=O)NC(=O)[C@H](CCCNC(N)=O)NC(=O)[C@H](CCCNC(=N)N)NC(=O)[C@H](Cc5ccc(O)cc5)NC(=O)[C@@H]5CCCN5C(=O)[C@H](CCCCN)NC(=O)[C@H](CCCCN)NC(=O)[C@H](CCCNC(N)=O)NC(=O)[C@H](Cc5ccc(O)cc5)NC4=O)C3=O)cc(c2)CSC[C@@H](C(=O)O)NC(=O)[C@H](Cc2ccccc2)NC(=O)[C@H](CCC(N)=O)NC(=O)C([C@@H](C)O)NC(=O)[C@@H]2CCCN2C(=O)[C@@H]2CCCN2C1=O` (single isomer, unassigned) [^68Ga-SDYD02, metal not drawn], the “stability in PBS buffer (in words)” value in data set [1] is listed as “quite stable in PBS buffer”. Besides, the “radioactive uptake in the tumor sites (in words)” value in data set [2] is “significant radioactive uptake in the tumor sites”. In data set [3], the tissue uptake at 0.5 h is at least 10 %ID/g and the tissue uptake at 1 h was at least 10 %ID/g.

Consider `CN1C(=O)[C@@H](Cc2ccc(O)cc2)NC(=O)CNC(=O)[C@H](Cc2ccc3ccccc3c2)NC(=O)[C@H](CCCNC(=N)N)NC(=O)[C@H]1CCCNC(=O)c1ccc(CNC(=O)[C@H](CCCCNC(=O)CN2CCN(CC(=O)O)CCN(CC(=O)O)CCN(CC(=O)O)CC2)NC(=O)CCC(=O)NCCOCCOCC(=O)NCCOCCOCC(=O)N2CCN(CCCOc3ccc4nccc(C(=O)NCC(=O)N5CC(F)(F)C[C@H]5C#N)c4c3)CC2)cc1` [^68Ga-SDYD05, metal not drawn], for which, in data set [1], the “stability in PBS buffer (in words)” value was “quite stable in PBS buffer”. The “radioactive uptake in the tumor sites (in words)” value in data set [2] is “significant radioactive uptake in the tumor sites”. For the same compound, in data set [3], the tissue uptake at 0.5 h is at least 10 %ID/g and the tissue uptake at 1 h is at least 10 %ID/g.

With `CCCCCC(=O)N[C@@H]1CSCc2cc(CSCCNC(=O)COCCOCCNC(=O)COCCOCCNC(=O)CSC3CC(=O)N(CCC(=O)N[C@H](CCCCNC(=O)CN4CCN(CC(=O)O)CCN(CC(=O)O)CCN(CC(=O)O)CC4)C(=O)NCc4ccc(C(=O)NCCC[C@@H]5C(=O)N[C@@H](CCCNC(=N)N)C(=O)N[C@@H](Cc6ccc7ccccc7c6)C(=O)NCC(=O)N[C@H](Cc6ccc(O)cc6)C(=O)N5C)cc4)C3=O)cc(c2)CSC[C@@H](C(=O)O)NC(=O)[C@H](Cc2ccccc2)NC(=O)[C@H](CCC(N)=O)NC(=O)C([C@@H](C)O)NC(=O)[C@@H]2CCCN2C(=O)[C@@H]2CCCN2C1=O` (single isomer, unassigned) [^68Ga-SDYD06, metal not drawn], the “stability in PBS buffer (in words)” value in data set [1] is “quite stable in PBS buffer”. In addition, in data set [2], the “radioactive uptake in the tumor sites (in words)” value is recorded as “significant radioactive uptake in the tumor sites”. For the same compound, in data set [3], the tissue uptake at 0.5 h was at least 10 %ID/g and the tissue uptake at 1 h is at least 10 %ID/g.

As to `CCCCCC(=O)N[C@H]1CSCc2cc(CSCCNC(=O)[C@H](CCCCNC(=O)CCN3C(=O)CC(SCC(=O)NCCOCCOCCOCCOCCC(=O)NCCCC[C@@H]4NC(=O)[C@@H](Cc5ccc(O)cc5)NC(=O)[C@H](CC(=O)O)NC(=O)CNC(=O)[C@H](CCCNC(=N)N)NC4=O)C3=O)NC(=O)CCC(C(=O)O)N3CCN(CC(=O)O)CCN(CC(=O)O)CCN(CC(=O)O)CC3)cc(c2)CSC[C@@H](C(=O)O)NC(=O)[C@H](Cc2ccccc2)NC(=O)[C@H](CCC(N)=O)NC(=O)C([C@@H](C)O)NC(=O)[C@@H]2CCCN2C(=O)[C@@H]2CCCN2C1=O` (single isomer, unassigned) [^68Ga-SDYD08, metal not drawn], the “stability in PBS buffer (in words)” value in data set [1] was “quite stable in PBS buffer”. Besides, in data set [2], the “radioactive uptake in the tumor sites (in words)” value is “significant radioactive uptake in the tumor sites”. In data set [3], the tissue uptake at 0.5 h is at least 10 %ID/g and the tissue uptake at 1 h was at least 10 %ID/g.
